Source: US20240182547A1 (MOGAM INSTITUTE FOR BIOMEDICAL RESEARCH, published 2024)
Substitutions are numbered along the chain they refer to.

B1: #18m (antibody, V domains shown)
VH: EVQLVESGGGLVKPGGSLRLSCAASGFTFTSYRMHWVRQAPGKGLEWVSSITGGGNYIEYADSVKGRFTISRDNAKNSLDLQMNSLRAEDTAIYYCARDMYGLGSYYSPNYFDPWGQGTLVTVSS
VL: QSVLTQPLSVSGAPGQRVTISCTGSSSNIGAGYDVHWYQQVPGTAPKLLIFGSTNRPSGVPDRFSGSKSGASASLAITGLQADDEADYYCQSYDRSLSHVFGTGTKVTVL
notes: Germline-edited (m) form of 2H9, heavy and light chain edited; IgG; also called 2H9 (modified)
B2: 10A6 (antibody, V domains shown)
VH: B1 VH with P114S
VL: SYELTQPPSVSGAPGQRVTISCTGSSSNIGAGYDVHWYQQLPGAAPRLLMFGNSNRPSGVPDRFSGSKSGTSASLAITGLQAEDEADYYCQSYDSSLSYVFGTGTKVTVLG
notes: IgG made in Expi293; also called #27; 27
B3: 2F1 (antibody, V domains shown)
VH: B1 VH
VL: QSVLTQPPSVSGAPGQRVTISCTGSSSNIGAGYDVHWYQQVPGTAPKLLIFGSTNRPSGVPDRFSGSKSGASASLAITGLQTEDEADYYCQSYDRSLSAWVFGGGTKLTVLG
notes: IgG made in Expi293; also called #24; 24
B4: 2H11 (antibody, V domains shown)
VH: B1 VH with E1Q, E6Q, L120T
VL: QSVLTQPPSVSGAPGQRVTISCTGSSSNIGAGYDVHWYQQLPGRAPKLLIFANTNRPSGVPDRFSGSKSGASASLAISGLQAEDEAHYYCQSYDRSLNVVFGGGTELTVLG
notes: IgG made in Expi293; also called #23; 23
B5: 2G4 (antibody, V domains shown)
VH: EVQLVESGGGLVKPGGSLRLSCAASGFTFSSYTMHWVRQAPGKGLEWVSSITGGSSYVDYSASVKGRFTISRDNAQSSLYLQMNSLRAEDTAVYYCARDDYGSGSYSNWFDPWGQGTLVTVSS
VL: QSVLTQPPSVSGAPGQRVTISCTGSSSNIGAGYDVHWYQQVPGTAPKLLIFGSTNRPSGVPDRFSGSKSGTSASLAITGLQADDEADYYCQSYDRSLSHVFGTGTKVTVLG
notes: IgG made in Expi293; also called #1
B6: 2H8 (antibody, V domains shown)
VH: B1 VH with V12A
VL: B2 VL with S1Q, Y2S, E3V, S95R, Y99H
notes: IgG made in Expi293; also called #26; 26
B7: #11m (antibody, V domains shown)
VH: B5 VH with S30T, T33R, S55G, S56N, V58I, D59E, S61A, A62D
VL: B5 VL with V41L, T44R, G52A, S53N, T71A
notes: Germline-edited (m) form of 12E9, light chain edited; IgG; also called 12E9 (modified)
B8: 4G1 (antibody, V domains shown)
VH: QVTLKESGGGLVKPGGSLRLSCAASGFRLSSYGMNWVRQAPGKGLEWVSSISASSSFINYADSVRDRFTISRDNAKNSLYLQMNSLRAEDTAVYYCARDDYGSGSYSNWFDPWGQGTLVTVSS
VL: B5 VL with S25N, I29L, V41L, T44R, G52A, S53N, T71A, G79S
notes: IgG made in Expi293; also called #33; 33
B9: 4E3 (antibody, V domains shown)
VH: B5 VH with A24G
VL: B5 VL with T71A
notes: IgG made in Expi293
B10: 1E6 (antibody, V domains shown)
VH: B1 VH
VL: B5 VL with V41L, T44R, G52A, S53N, T71A
notes: IgG made in Expi293; also called #22; 22
B11: 12E9 (antibody, V domains shown)
VH: B5 VH with S30T, T33R, S55G, S56N, V58I, D59E, S61A, A62D
VL: B5 VL with S2T, L4V, P7E, V41L, T44R, G52A, S53N, T71A
notes: IgG made in Expi293; also called #11; 11
B12: 13C2 (antibody, V domains shown)
VH: B1 VH
VL: B5 VL with N55D, T71N, S72T, A76T, T78S, D83E
notes: IgG made in Expi293; also called #25; 25
B13: 10E7 (antibody, V domains shown)
VH: B1 VH with P114S
VL: B5 VL with V41L, T44R, G52A, S53N, T71A
notes: IgG made in Expi293; also called #13; 13
B14: 4E1 (antibody, V domains shown)
VH: B5 VH with K13Q, S21A
VL: B2 VL with A44R, R47K, M50I, G52A, S54T, T71A, S95R, Y99H
notes: IgG made in Expi293; also called #17; 17
B15: 12B11 (antibody, V domains shown)
VH: EVQLVESGGGVVQPGRSLRLACAASGFTFNSYAMHWVRQAPGKGLEWVSSITGGSSYVDYSASVKGRFTISRDNAQSSLYLQMNSLRAEDTAVYYCARDMYGLGSYYSPNYFDPWGQGTLVTVSS
VL: B2 VL with A44R, R47K, M50I, G52A, S54T
notes: IgG made in Expi293; also called #15; 15
B16: #12m (antibody, V domains shown)
VH: B5 VH with A24G, T28A, V58L, S61A, A62H, A75G, S77N, Y80F, A88T, W109Y
VL: B5 VL with T71A, A82T, D83E
notes: Germline-edited (m) form of 4F11, light chain edited; IgG; also called 4F11 (modified)
B17: 2H3 (antibody, V domains shown)
VH: B5 VH with L11V, K13Q, P14S, G16R, A24G
VL: B5 VL with T71A, A82T, D83E
notes: IgG made in Expi293; also called 2F5; #65
B18: 4H1 (antibody, V domains shown)
VH: B5 VH with A24G
VL: B5 VL with T71A, S92P, G111R
notes: IgG made in Expi293; also called #3
B19: 2H9 (antibody, V domains shown)
VH: B1 VH with E1Q, Q3T, V5K
VL: B5 VL with Q1S, S2Y, V3E, P8L, T71A
notes: IgG made in Expi293; also called #18; 18
B20: #20m (antibody, V domains shown)
VH: B1 VH
VL: B5 VL with T71A, A82T, D83E
notes: Germline-edited (m) form of 3E10, light chain edited; IgG; also called 3E10 (modified)
B21: 2H1 (antibody, V domains shown)
VH: B5 VH with E1Q, Q3T, V5K, L11V, K13Q, P14S, G16R
VL: B5 VL with V41L, T44R, F51Y, G52A, S53N, P61A, T71A
notes: IgG made in Expi293; also called #9
B22: #17m (antibody, V domains shown)
VH: B5 VH with K13Q, S21A
VL: B5 VL with V41L, T44R, G52A, S53N, T71A, D83E
notes: Germline-edited (m) form of 4E1, light chain edited; IgG; also called 4E1 (modified)
B23: 2G1 (antibody, V domains shown)
VH: B1 VH with E1Q, Q3T, V5K
VL: B5 VL with V41L, T71A, A82T, D83E
notes: IgG made in Expi293; also called #21; 21
B24: 4G2 (antibody, V domains shown)
VH: B1 VH
VL: B2 VL with S1Q, Y2S, E3V, Y99H
notes: IgG made in Expi293; also called #28; 28
B25: 4F11 (antibody, V domains shown)
VH: B5 VH with A24G, T28A, V58L, S61A, A62H, A75G, S77N, Y80F, A88T, W109Y
VL: B5 VL with S2P, T71A, A82T, D83E
notes: IgG made in Expi293; also called #12; 12
B26: #15m (antibody, V domains shown)
VH: B15 VH
VL: B5 VL with V41L, T44R, G52A, S53N, D83E, R95S, H99Y
notes: Germline-edited (m) form of 12B11, light chain edited; IgG; also called 12B11 (modified)
B27: 3H8 (antibody, V domains shown)
VH: B5 VH with A24G, Q115R, L118T
VL: B5 VL with S2P, P8L, V10A, A13T, V41L, T44R, G52A, S53N, D83E
notes: IgG made in Expi293; also called #16; 16
B28: #33m (antibody, V domains shown)
VH: B8 VH with Q1E, T3Q, K5V
VL: B5 VL with S25N, I29L, V41L, T44R, G52A, S53N, T71A, G79S
notes: Germline-edited (m) form of 4G1, heavy chain edited; IgG; also called 4G1 (modified)
B29: 4G4 (antibody, V domains shown)
VH: B5 VH with A24G
VL: B5 VL with S25N, I29L, V41L, F51Y, G52A, S53N, T71A, A82T, D83E
notes: IgG made in Expi293; also called #10; 10
B30: 12C11 (antibody, V domains shown)
VH: B1 VH with G44R
VL: B5 VL with T71A, A82T, D83E
notes: IgG made in Expi293; also called #19; 19
B31: #16m (antibody, V domains shown)
VH: B5 VH with A24G, Q115R, L118T
VL: B5 VL with P8L, V10A, A13T, V41L, T44R, G52A, S53N, D83E
notes: Germline-edited (m) form of 3H8, light chain edited; IgG; also called 3H8 (modified)
B32: 2G11 (antibody, V domains shown)
VH: B1 VH with K13Q
VL: B2 VL with S1Q, Y2S, E3V
notes: IgG made in Expi293; also called #29; 29
B33: #27m (antibody, V domains shown)
VH: B1 VH with P114S
VL: B2 VL with S1Q, Y2S, E3V
notes: Germline-edited (m) form of 10A6, light chain edited; IgG; also called 10A6 (modified)
B34: 3E10 (antibody, V domains shown)
VH: B1 VH
VL: B5 VL with S2P, T71A, A82T, D83E
notes: IgG made in Expi293; also called #20; 20
B35: 2E9 (antibody, V domains shown)
VH: B5 VH with E1Q, Q3T, V5K, A24G, Q76K, S77N, Y80F
VL: B5 VL with V41L, T44R, G52A, S53N, T71A
notes: IgG made in Expi293; also called #14; 14

biological target: DS-Cav1 (RSV F-protein, pre-form, in-house) (respiratory syncytial virus (RSV), UniProt P03420 26-513); experiment: ELISA, coated DS-Cav1, IgG titrated
Sequence (P03420 26-524): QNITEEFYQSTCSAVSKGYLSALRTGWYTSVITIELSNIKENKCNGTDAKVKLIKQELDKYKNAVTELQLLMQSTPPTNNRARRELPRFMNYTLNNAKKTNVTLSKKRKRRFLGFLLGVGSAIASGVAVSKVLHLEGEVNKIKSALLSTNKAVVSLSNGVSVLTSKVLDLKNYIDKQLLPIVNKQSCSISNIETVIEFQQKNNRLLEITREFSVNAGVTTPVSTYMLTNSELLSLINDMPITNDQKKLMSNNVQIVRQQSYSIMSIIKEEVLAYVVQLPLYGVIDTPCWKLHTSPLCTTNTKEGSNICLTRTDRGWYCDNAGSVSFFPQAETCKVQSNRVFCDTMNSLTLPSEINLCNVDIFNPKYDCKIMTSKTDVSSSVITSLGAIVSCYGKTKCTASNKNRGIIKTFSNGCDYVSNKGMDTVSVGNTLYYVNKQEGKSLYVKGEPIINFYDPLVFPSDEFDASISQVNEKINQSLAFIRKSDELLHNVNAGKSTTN

Row | Binder | Kd [nM]
1 | B1 | ~1.84
2 | B2 | ~1.56
3 | B3 | ~0.66
4 | B4 | ~0.45
5 | B5 | ~1.01
6 | B6 | ~0.42
7 | B7 | ~2.01
8 | B8 | ~0.27
9 | B9 | ~0.33
10 | B10 | ~0.34
11 | B11 | ~0.57
12 | B12 | ~1.16
13 | B13 | ~1.73
14 | B14 | ~0.56
15 | B15 | ~0.72
16 | B16 | ~1.82
17 | B17 | ~0.98
18 | B18 | ~1.73

Row | Binder | Kd [nM]
19 | B19 | ~0.38
20 | B20 | ~0.88
21 | B21 | ~1.95
22 | B22 | ~1.13
23 | B23 | ~0.55
24 | B24 | ~1.05
25 | B25 | ~0.43
26 | B26 | ~1.2
27 | B27 | ~0.51
28 | B28 | ~0.97
29 | B29 | ~0.38
30 | B30 | ~0.72
31 | B31 | ~0.97
32 | B32 | ~0.85
33 | B33 | ~1.41
34 | B34 | ~0.52
35 | B35 | ~0.48
